Laboratory results as given in doi:10.1101/2024.07.29.605519.

How the values were obtained:
[1] = biological target: SCRM KiDoK peptide (Arabidopsis); assay: ITC; as a3, but MPK6ΔNt (29–305) pre-incubated with the small molecule kC9
[2] = biological target: SCRM KiDoK peptide (Arabidopsis); assay: BLI; as a1, but MPK6 pre-incubated with the small molecule kC9 (MPK6:kC9 1:1.5 in the methods, 1:2 in the legend) as analyte
[3] = biological target: SCRM KiDoK peptide (Arabidopsis); assay: ITC; Malvern PEAQ-ITC, 25 °C, PBS pH 7.4 with 2% DMSO; SCRM KiDoK peptide with MPK6ΔNt (29–305); without kC9
[4] = biological target: SCRM KiDoK peptide (Arabidopsis); assay: BLI; Octet Red96; biotinylated SCRM KiDoK peptide (500 nM) loaded on streptavidin probes, MPK6 as analyte (150 nM and two-fold dilutions); 25 °C; 1x PBS, 2 % DMSO, 0.02 % Tween20, 0.1 % BSA; 1:1 model, Kd from steady-state analysis; without kC9

Chain of MPK6ΔNt (29–305) (Q39026 29-305, stated change not applied): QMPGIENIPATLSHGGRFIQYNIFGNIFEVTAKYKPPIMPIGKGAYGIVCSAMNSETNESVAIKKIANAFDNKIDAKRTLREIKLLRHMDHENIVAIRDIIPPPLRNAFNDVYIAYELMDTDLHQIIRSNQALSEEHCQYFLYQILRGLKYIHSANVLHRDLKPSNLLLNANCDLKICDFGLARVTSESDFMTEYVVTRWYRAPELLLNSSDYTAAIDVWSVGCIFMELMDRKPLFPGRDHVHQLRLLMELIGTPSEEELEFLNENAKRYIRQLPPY

Kd [1]: 1400 nM | Kd [2]: 856 nM | Kd [3]: 43.4 nM | Kd [4]: 40.1 nM
Substance: MPK6ΔNt (29–305) (from UniProt Q39026 29-305) (domain or fragment)
